These results are taken from the supplement of paper PMC9170038.

In the data set the test system is MS2 coat protein. Nature of the data set: apparent KD of MS2 coat protein; designed switch direction (-1 OFF switch, 1 ON switch): -1; higher = weaker reporter binding. In a few lines:
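Each step of the titration lasted 0.8–1.5 h at the lowest concentration and 10–20 min at the highest. The protein, SNAP-549-labelled MS2 coat protein, went from 0.7 or 1.5 nM doubling to 3 µM over RNA switches transcribed on Illumina chips by stalled E. coli RNA polymerase. Normalised cluster fluorescence was curve-fitted, and the per-design median over clusters is given as apparent KD.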

The mark [1] stands for this setting: Eterna round: R95, input ligand: FMN 200 uM.
[2] abbreviates: Eterna round: R95, input ligand: microRNA oligo, concentration not stated.
Where [3] appears, read: Eterna round: R95, input ligand: none.
Where [4] appears, read: input ligand: microRNA oligo, concentration not stated.

Consider “UUUAAUUUUUUUUUUUUACAAGCUUUUUGCUCGUCUUAUACAUGAGGAUCACCCAUGUGAAUGGGAGGUAAAUUAUC [JMF 73] (puzzle: Sensor v3, turn-off variant 2)”, for which the “apparent KD of MS2 coat protein” value runs as follows: under setting [1], 0.175 µM; under setting [2], 0.192 µM; under setting [3], 0.116 µM.

As to “UUUAAUUUUUUUUUUUUACAAGCUUUUUGCUCGUCUUAUACAUGAGGAUCACCCAUGUGAGUGGGAAGUAAAUUAUC [JMF 55] (puzzle: Sensor v3, turn-off variant 2)”, the “apparent KD of MS2 coat protein” value is, setting by setting: under setting [1], 0.0205 µM; under setting [2], 0.248 µM; under setting [3], 0.0199 µM.

Turning to “UUUAAUUUUUUUUUUUUACAAGCUUUUUGCUCGUCUUAUACAUGAGGAUCACCCAUGUGGGUGGAAAGUAAAUUAUC [JMF 47] (puzzle: Sensor v3, turn-off variant 2)”, the “apparent KD of MS2 coat protein” value came to 0.0389 µM under setting [1], 0.0963 µM under setting [2] and 0.0562 µM under setting [3].

In the case of “UUUACAAGCUAAUGAUCCCACAUGAGGAUCACCCAUGUUGCUGCCGGUGACGGUAGCAUAACAUUUGCUCGUCUUAU [JL TOV1 3.58] (Eterna round: R97, puzzle: Sensor, turn-off variant 1)”, the “apparent KD of MS2 coat protein” value reads like this: (input ligand: FMN 200 uM) 1.18 µM; (input ligand: none) 1.01 µM.

Turning to “UUUACAAGCUUAAGAUCCCACAUGAGGAUCACCCAUGUUGCUGCCGUGAGGUAGCUUUUAACUUAUGCUCGUCUUAU [JL TOV1 3.42] (Eterna round: R97, puzzle: Sensor, turn-off variant 1)”, the “apparent KD of MS2 coat protein” value is, setting by setting: (input ligand: FMN 200 uM) 0.094 µM; (input ligand: none) 0.11 µM.

In the case of “UUUAGUUCAGGAUAUGUAGACAUUAACAUGAGGAUCACCCAUGUAGAUCCUGAAUUGGCUACAGAAGGGAGCAUUU [Mod of Brourd 10 - Jieux - Exclusion 5] (Eterna round: R97, puzzle: Exclusion 5)”, the “apparent KD of MS2 coat protein” value came to 0.109 µM (input ligand: FMN 200 uM) and 0.0284 µM (input ligand: none).

As to “UUUAGUUCAGGAUAUGUAGAUUUAAACAUGAGGAUCACCCAUGUAGAUCCUGAUCCUGCUACAGAAGGGAACAUUU [Exclusion 5: 2:a mod1] (Eterna round: R97, puzzle: Exclusion 5)”, the “apparent KD of MS2 coat protein” value runs as follows: (input ligand: FMN 200 uM) 0.0729 µM; (input ligand: none) 0.0243 µM.

In the case of “UUUAUCCGAGGAUAUACAGAAUGAAUGUGAAAUGAAUGAUGACAUGAGGAUCACCCAUGUAGAAGGCGGAUAUA [Default title] (Eterna round: R97, puzzle: Exclusion 2)”, the “apparent KD of MS2 coat protein” value runs as follows: (input ligand: FMN 200 uM) 0.404 µM; (input ligand: none) 0.0578 µM.

Regarding “UUUAUGUCAGGAUAUGAGGAGUAGAACAAUAGUACUACUCCUCAGAAGGGACAUGAGGAUCACCCAUGUUCCUC [Fiskers Ex 4 Super stable 44 mod 25] (puzzle: Exclusion 4)”, the “apparent KD of MS2 coat protein” value under setting [2] was determined as 0.0185 µM.

On to “UUUCGUGCGCGGGUUUUUUACAUGAGGAUCACCCAUGUCCUCUGCUUGUCUUGUCUUGGGCUUUUUUUGGGUUCGGG [-19.7, -39 kcal, A 8%] (Eterna round: R97, puzzle: Sensor, turn-off variant 1)”, for which the “apparent KD of MS2 coat protein” value is, setting by setting: (input ligand: FMN 200 uM) 0.771 µM; (input ligand: none) 0.868 µM.

Take “UUUGAUUAAGUGAGGAUAUACUGUUUGUAUUGAUUGUAGAAGGUACAUGAGGAUCACCCAUGUUUAGUAUUUAU [JR_BME4_Sub037] (puzzle: Brourd's mod of Exclusion 4)”: the “apparent KD of MS2 coat protein” value under setting [2] came to 0.0192 µM.

Regarding “UUUGCAAGCUAAAGAUCCCACAUGAGGAUCACCCAUGUUGCUGCCGUGAGGUAGCUUUUAACUUUUGCUCGUCUUAU [JL TOV1 3.44] (Eterna round: R97, puzzle: Sensor, turn-off variant 1)”, the “apparent KD of MS2 coat protein” value reads like this: (input ligand: FMN 200 uM) 0.183 µM; (input ligand: none) 0.217 µM.

In the case of “UUUGUAUAUGAAGGAUAUACUUAACAUGAGGAUCACCCAUGUGGUGUUGUGAGUGAGUGAGUUUAGUAGAAGGUCAAUGAUUUU [JMF's solution 71] (Eterna round: R96, puzzle: Exclusion NG 2)”, the “apparent KD of MS2 coat protein” value (input ligand: FMN 200 uM) was 0.531 µM, the “apparent KD of MS2 coat protein” value under setting [4] came out at 0.218 µM and the “apparent KD of MS2 coat protein” value (input ligand: none) was 0.317 µM.

For “UUUGUCUGUGUGAGGAUAUACUUGUUUGGGUUUUUGUAGAAGGCACAUGAGGAUCACCCAUGUAUUUUGUCGUG [JR_BME4_Sub018] (Eterna round: R96, puzzle: Brourd's mod of Exclusion 4)”, the “apparent KD of MS2 coat protein” value (input ligand: FMN 200 uM) worked out at 0.0777 µM, the “apparent KD of MS2 coat protein” value under setting [4] is 0.0341 µM and the “apparent KD of MS2 coat protein” value (input ligand: none) was 0.0419 µM.

As to “UUUGUCUGUGUGAGGAUAUACUUGUUUGGGUUUUUGUAGAAGGCACAUGAGGAUCACCCAUGUAUUUUGUCGUG [JR_BME4_Sub018] (puzzle: Brourd's mod of Exclusion 4)”, the “apparent KD of MS2 coat protein” value under setting [2] came out at 0.0367 µM.

“UUUGUUUAUGUAGGAUAUGCCUGGCGUGCCUUCGCAGAAGGACAUGAGGAUCACCCAUGUAUUGCGGUCUGCGUUCAGAUCGCC [salish99_ExNG1_r4_028] (Eterna round: R96, puzzle: Exclusion NG 1)”: the “apparent KD of MS2 coat protein” value (input ligand: FMN 200 uM) stood at 0.0226 µM, the “apparent KD of MS2 coat protein” value under setting [4] was 0.0161 µM and the “apparent KD of MS2 coat protein” value (input ligand: none) turned out to be 0.021 µM.

As to “UUUGUUUAUGUAGGAUAUGCCUGGCGUGCCUUUGCAGAAGGACAUGAGGAUCACCCAUGUAACAUGAGGCUCACCCAUGUCGCA [salish99_ExNG1_r04_110] (Eterna round: R96, puzzle: Exclusion NG 1)”, the “apparent KD of MS2 coat protein” value is, setting by setting: (input ligand: FMN 200 uM) 0.682 µM; under setting [4], 0.453 µM; (input ligand: none) 0.645 µM.

Regarding “UUUGUUUGGUAGGAUAUCAACUAAGAGAGUGGCUGAGAAGGACCAACAUGAGGAUCACCCAUGUCGGUUCCGUU [EX6 C.15] (Eterna round: R97, puzzle: Exclusion 6)”, the “apparent KD of MS2 coat protein” value reads like this: (input ligand: FMN 200 uM) 0.0162 µM; (input ligand: none) 0.0148 µM.

Turning to “UUUUAACAUGAGGAUCACCCAUGUGAGGAUAUCGAAAUUUAUAUUAAUAUUAUUAUUUCGAGAAGGCACAUUUU [JMF 41] (puzzle: Exclusion 1)”, the “apparent KD of MS2 coat protein” value under setting [2] came out at 0.155 µM.

Consider “UUUUAACAUGAGGAUCACCCAUGUGAGGAUAUCGAAAUUUAUAUUAAUAUUUUUAAUUCGAGAAGGCACAUUUU [JMF 69] (puzzle: Exclusion 1)”, for which, under setting [2], the “apparent KD of MS2 coat protein” value is 0.136 µM.

Consider “UUUUAACAUGAGGAUCACCCAUGUGAGGAUAUCGAAAUUUAUAUUUAUAUUAAUAAAACGAGAAGGCACAUUUU [JMF 75] (puzzle: Exclusion 1)”, for which the “apparent KD of MS2 coat protein” value came to 0.119 µM under setting [1], 0.0704 µM under setting [2] and 0.0874 µM under setting [3].

Consider “UUUUAACAUGAGGAUCACCCAUGUGAGGAUAUCGAAAUUUAUAUUUAUAUUAAUAUUUCGAGAAGGCACAUUUU [JMF 81] (puzzle: Exclusion 1)”, for which the “apparent KD of MS2 coat protein” value under setting [2] turned out to be 0.176 µM.

For “UUUUAACAUGAGGAUCACCCAUGUGAGGAUAUCGAAAUUUAUAUUUAUAUUUAUAUUACGAGAAGGCACAUUUU [JMF 98] (puzzle: Exclusion 1)”, the “apparent KD of MS2 coat protein” value under setting [2] was found to be 0.0843 µM.

With “UUUUACAUAGGAUAUAGUUGCUUUUACAUGAGGAUCACCCAUGUCUCUCCUCUCUCUCUUCUAGAAGGAUGUUUCU [JR_E5_Sub011] (Eterna round: R96, puzzle: Exclusion 5)”, the “apparent KD of MS2 coat protein” value runs as follows: (input ligand: FMN 200 uM) 0.0553 µM; under setting [4], 0.0357 µM; (input ligand: none) 0.047 µM.

Consider “UUUUACAUAGGAUAUAGUUGCUUUUACAUGAGGAUCACCCAUGUCUCUCCUCUCUCUCUUCUAGAAGGAUGUUUCU [JR_E5_Sub011] (puzzle: Exclusion 5)”, for which the “apparent KD of MS2 coat protein” value under setting [2] was found to be 0.0533 µM.

In the case of “UUUUAGGGAGGAUAUACAUUUUUUUUAUUAUCCUCAUUAAUACAUGAGGAUCACCCAUGUAGAAGGCCCAUUUU [Mat - Exclusion 2 - Mod of Hog - D84] (puzzle: Exclusion 2)”, the “apparent KD of MS2 coat protein” value under setting [2] is 0.0479 µM.

For “UUUUAGUCAGGAUAUACAUUUUUUUAAUUAUUUAUAAUAUUACAUGAGGAUCACCCAUGUAGAAGGGACAUUUU [My Design] (puzzle: Exclusion 2)”, under setting [2], the “apparent KD of MS2 coat protein” value turned out to be 0.0286 µM.

Consider “UUUUGCUCAGGAUAUACAUGAGGAUCACCCAUGUAUAUUGAAAAUAAUACAUGGGAAUGUAGAAGGGAGCUCAU [Omei Ex3 Pseudoloop 20] (Eterna round: R97, puzzle: Exclusion 3)”, for which the “apparent KD of MS2 coat protein” value is 0.127 µM (input ligand: FMN 200 uM) and 0.168 µM (input ligand: none).

On to “UUUUGGCAUGUAGGAUAUGGGUCCGAUUGGGAUUUAGAAGGACAUGAGGAUCACCCAUGUGCCCUUACUUGGUGUUUUUUUUUU [EXclNG1-LROPPY20] (Eterna round: R96, puzzle: Exclusion NG 1)”, for which the “apparent KD of MS2 coat protein” value (input ligand: FMN 200 uM) was found to be 0.126 µM, the “apparent KD of MS2 coat protein” value under setting [4] turned out to be 0.0446 µM and the “apparent KD of MS2 coat protein” value (input ligand: none) was found to be 0.0916 µM.

For the sequence “UUUUUACAUGAGGAUCACCCAUGUGAGGAUAUGGUUUCGCUGGCCGUAGCCAGUGGAACCAGAAGGCGCAUGAU [Mat - Exclusion 1 - JL Mod - D8] (Eterna round: R97, puzzle: Exclusion 1)”, the “apparent KD of MS2 coat protein” value runs as follows: (input ligand: FMN 200 uM) 0.374 µM; (input ligand: none) 0.0847 µM.

For the sequence “UUUUUACGAGGAUAUCGAUUGUGGUACAUGAGGAUCACCCAUGUAUGUGAUAUUGUAUUUCGAGAAGGCGUUCAGU [JR_E5_Sub060] (puzzle: Exclusion 5)”, the “apparent KD of MS2 coat protein” value under setting [2] was found to be 0.0215 µM.

As to “UUUUUCUCAGGAUAUACAUGAGGAUCACCCAUGUAUAUUGAUGAUAAUACAUGGGAAUGUAGAAGGGAGCUCAU [Omei Ex3 Pseudoloop 16] (Eterna round: R97, puzzle: Exclusion 3)”, the “apparent KD of MS2 coat protein” value reads like this: (input ligand: FMN 200 uM) 0.0879 µM; (input ligand: none) 0.0957 µM.

With “UUUUUUGUUGUGAGGAUAUCGUUGUUGUUGUGGAUCGAGAAGGCACAUGAGGAUCACCCAUGUUUGUUGUGGUU [JR_BMOE4_Sub086] (Eterna round: R96, puzzle: Brourd's mod of Exclusion 4)”, the “apparent KD of MS2 coat protein” value is 0.272 µM (input ligand: FMN 200 uM), 0.0812 µM under setting [4] and 0.109 µM (input ligand: none).
